According to the supplement of paper PMC10567573:

B1: DVL3 (parent)
chain: YNPHPGFPELGYSYGGGSASSQHS
B2: POMT2 (parent)
chain: YHEAPMTRKHYQVTGYGINGTGDS

Variants of: B1
Assay: protein stability index of a GFP-peptide fusion (GPS, HEK-293T) (PSI 1-6); higher = more stable
Settings: c terminus: a fixed tail appended
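Also: lentivirally expressed fusions sorted by FACS into six bins by GFP to DsRed ratio, PSI derived from sequencing read proportions per bin multiplied by bin number.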

Protein stability index: each site, then its substitutions
S13: N 3.08 | A 2.95 | E 3.71 | K 2.94 | Q 3 | C 1.78 | W 2.53 | M 2.67 | F 1.95 | G 2.55 | P 2.58 | R 2.85 | I 2.24
G11: C 2.3 | A 2.76 | T 2.76 | Y 2.66 | R 3.24 | L 2.04 | K 3.13 | I 2.24 | V 2.44 | W 2.29
G6: I 2.38 | A 2.78 | R 2.46 | K 3.05 | H 2.67 | M 2.74 | D 3.14 | C 2.53 | Q 3.44 | Y 2.17 | T 2.28
Y1: N 4.11 | V 3.12 | D 4.18 | E 4.73 | P 4.24 | T 4.25 | M 3.37 | I 3 | Q 4.53 | R 3.52 | G 4.47
G17: E 3.05 | T 2.85 | K 2.83 | W 1.69 | F 1.77 | V 1.63 | M 2.25 | R 2.82 | S 3.29 | P 2.62
G15: Q 2.63 | A 2.43 | W 2.3 | E 3.33 | L 2.24 | N 2.63 | V 2.22 | T 3.05 | Y 1.82 | R 2.33 | S 2.86 | P 2.9
L10: C 3.06 | Y 2.57 | N 3.74 | R 3.64 | G 2.94 | T 2.98 | H 3.4 | A 3.17 | Q 3.18 | F 2.92 | I 2.6 | M 2.04 | S 3.16 | V 3.17
Y14: L 2.69 | C 3.1 | E 4.1 | G 3.69 | M 2.86 | W 2.76 | T 3.24 | Q 3.15 | V 3.26 | R 3.05 | P 3.32
Y12: K 2.47 | H 3.26 | N 3.96 | S 3.15 | D 4.19 | R 2.68 | V 1.74 | C 2.27 | E 3.79 | G 3.51 | I 2.06 | Q 3.42 | P 1.99
P8: L 2.12 | R 2.7 | H 2.38 | W 2.48 | K 2.38 | S 2.73 | M 2.52 | V 2.57 | N 3 | D 3.37 | A 2.37
F7: P 3.44 | N 3.38 | H 2.98 | Q 3.23 | G 3 | C 2.85 | L 3.35 | K 3.68 | E 2.7 | I 2.87 | V 3.01 | D 2.44
P3: C 3.32 | E 2.75 | A 3.07 | H 2.95 | V 3.08 | S 2.67 | D 2.81 | F 2.7 | W 2.51 | R 3.17 | I 2.86 | K 3.43 | Y 3.18
Q22: R 2.58 | S 2.71 | M 2.08 | C 2.13 | D 3.41 | K 3.4 | I 2.33 | E 2.85 | G 2.62 | F 2.88 | V 2.33 | N 2.6 | L 1.67
H23: W 2.19 | N 2.99 | K 2.87 | D 3.14 | Q 2.58 | G 2.78 | S 2.62 | V 2.32 | F 2.37 | L 2.86 | E 2.6 | T 3.2 | M 3.04 | C 2.38 | Y 2.92
S18: W 1.65 | V 2.72 | T 2.26 | F 2.58 | P 2.71 | D 2.85 | K 3.09 | E 3.19 | H 2.53 | Y 2.11 | Q 2.92 | C 2.57 | M 2.08 | N 3 | A 2.94 | G 2.68 | L 1.83
N2: T 2.23 | A 1.96 | S 2.72 | V 1.82 | Q 2.33 | C 2.12 | L 2.16 | Y 2.87 | M 2.55 | I 2.37 | D 3.64 | E 3.75 | F 2.32
S24: A 2.33 | K 2.76 | N 2.42 | P 3.36 | G 3.11 | E 2.41 | L 2.62 | Y 2.26 | R 1.87
S21: F 1.88 | A 3.1 | R 2.86 | H 2.55 | T 2.64 | L 2.24 | I 2.56 | G 2.61 | V 3.41 | D 3.01 | N 2.62 | W 1.95 | E 2.96 | Y 2.37
A19: P 2.74 | V 2.03 | H 2.3 | G 3.57 | M 2.57 | Q 2.99 | C 2.19 | N 3.07 | W 1.4 | L 2.17 | S 2.79 | I 2.3
H4: E 2.7 | D 3.9 | N 2.73 | S 2.1 | L 2.77 | T 2.34 | Q 2.56 | W 2.44 | F 2.16 | M 2.69 | I 2.51 | Y 2.35 | C 2.58 | K 3.61 | V 2.75
G16: M 2.79 | H 2.72 | I 2 | C 2.04 | Q 3.02 | T 2.57 | S 2.95 | V 1.89 | L 2.3 | N 2.99 | K 2.93 | E 3.61
P5: W 2.2 | M 2.31 | N 2.75 | I 2.4 | Q 3.26 | G 2.32 | E 3.27 | V 2.41 | S 2.64 | D 3.67 | Y 2.35 | K 2.31 | R 2.37 | A 2.58 | C 2.22 | H 2.36
S20: W 1.95 | E 2.95 | T 2.58 | L 2.2 | F 2 | G 2.97 | V 3.12 | C 2.88 | N 2.74 | P 2.89 | A 3.01 | M 2.46 | I 2.08
E9: T 1.84 | M 2.69 | R 2.44 | H 2.19 | Y 1.14 | I 1.18 | Q 2.04 | A 2.3 | K 1.8 | P 3.58

Variants of: B2
Assay: as above
Settings: c terminus: a fixed tail appended

Protein stability index, by site and new letter:
D23: K 1.99 | P 2.02 | G 2.88 | Q 2.44 | T 1.85 | L 1.95 | M 1.66 | H 2.03 | S 2.14 | W 1.24 | Y 1.67 | I 2.18 | R 1.25 | N 2.17 | V 2.42
S24: W 1.49 | C 1.81 | Q 1.68 | L 1.64 | V 2.44 | D 2.41 | M 1.79 | G 2.57 | R 2.17 | H 1.99 | P 2.23 | I 2.16 | A 2.15 | K 2.57 | E 2.29 | T 1.98 | N 2.11 | F 1.76 | Y 2.1
